This is an account of results in patent US20160303255, “COMPOSITIONS AND METHODS FOR TREATMENT OF MUSCULAR DYSTROPHY” (CONSIGLIO NAZIONALE DELLE RICHERCHE, published 2016).

The target in the data set is JZif1 (artificial (human Zif268/EGR1 derived), UniProt P18146 SEQ:1-543). As to the kind of experiment: cell_activity; luciferase induction in HeLa, pXP-Luc (about 318 bp human utrophin promoter A); also active in C2C7 (FIG. 8). Particulars: tags: none. As to the method:
To investigate the ability of JZif1, JZif2, Vp16-CJ7-UtroUp, Vp16-Bagly and Vp16-Jazz to upregulate (i.e., increase) expression from the utrophin promoter “A”, their ability to drive expression of a luciferase reporter gene placed downstream of a utrophin promoter “A” fragment was tested.
To test the ability of these artificial transcription factors to increase expression from the utrophin promoter “A” in human cells, HeLa cells were co-transfected with a plasmid carrying JZif1, JZif2, Vp16-CJ7-UtroUp, Vp16-Bagly or Vp16-Jazz under control of the cytomegalovirus (CMV) promoter together with the luciferase reporter construct plasmid pXP-Luc (pXP). JZif1, JZif2, Vp16-CJ7-UtroUp, Vp16-Bagly and Vp16-Jazz were each able to increase luciferase expression relative to controls (FIG. 7). […] By comparison, no increase in luciferase expression was detected when the pXP plasmid was co-transfected with a plasmid carrying the zinc finger domain of Jazz without a transcriptional activation domain, with a plasmid carrying the genomically-encoded human transcription factor Zif268's transcription activation domain without its zinc finger motifs, or with a plasmid carrying the transcriptional activation domain of Vp16 without a zinc finger DNA binding domain, which served as controls (FIG. 7). […]

JZif1, sequence (P18146 other isoform, or with tags, fused parts or gaps): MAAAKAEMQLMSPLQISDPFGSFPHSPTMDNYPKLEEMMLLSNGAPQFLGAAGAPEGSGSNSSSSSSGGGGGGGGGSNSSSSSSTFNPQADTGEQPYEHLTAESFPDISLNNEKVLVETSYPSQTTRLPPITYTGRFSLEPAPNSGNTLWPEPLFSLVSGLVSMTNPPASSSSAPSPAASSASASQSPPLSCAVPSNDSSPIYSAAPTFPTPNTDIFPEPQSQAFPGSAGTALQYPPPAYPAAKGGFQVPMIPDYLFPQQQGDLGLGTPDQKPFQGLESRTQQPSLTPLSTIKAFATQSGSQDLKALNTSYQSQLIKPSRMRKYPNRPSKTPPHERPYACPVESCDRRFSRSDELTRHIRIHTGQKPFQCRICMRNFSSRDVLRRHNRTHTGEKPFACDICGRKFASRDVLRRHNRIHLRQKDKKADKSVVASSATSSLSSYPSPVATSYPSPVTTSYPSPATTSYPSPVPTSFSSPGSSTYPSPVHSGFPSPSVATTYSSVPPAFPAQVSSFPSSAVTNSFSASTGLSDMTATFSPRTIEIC

B1: Jazz/JZif1 target in human utrophin promoter A (dsDNA)
DNA 1: GCTGCTGCG
DNA 2: CGCAGCAGC
In turn, B1 came in with an activity greater than 20 fold.
